These results are taken from FireProtDB (doi:10.1021/bi00005a026).

B1: Subtilisin-chymotrypsin inhibitor-2A, P01053 (parent)
chain: MSSVEKKPEGVNTGAGDRHNLKTEWPELVGKSVEEAKKVILQDKPEAQIIVLPVGTIVTMEYRIDRVRLFVDKLDNIAQVPRVG

This data set covers variants of B1. The note with it: Hordeum vulgare, pH 6.3, Thermal, Fluorescence, phosphate 10 mM, reversible: yes, structure 2CI2, whole UniProt chain shown; for ddG of mutation (higher = less stable): 46.6 °C.

Usually Tm stands for the temperature at which the thermal transition is half complete. As for V54A, the “ddG of mutation (higher = less stable)” value stood at 0.63 kcal/mol; the midpoint of thermal melting (Tm) is 43.8 °C; the “change of melting temperature, mutant - wild type (higher = more stable)” value (“change of melting temperature, mutant” for short) was -2.8 °C; the “unfolding enthalpy (van 't Hoff)” value is 40.5 kcal/mol.

As to V54T, the “ddG of mutation (higher = less stable)” value is 1.03 kcal/mol.

For the variant V71A, the “ddG of mutation (higher = less stable)” value was 1.95 kcal/mol; the midpoint of thermal melting (Tm) worked out at 29.8 °C; the “change of melting temperature, mutant” value was -16.8 °C; the “unfolding enthalpy (van 't Hoff)” value was 33.5 kcal/mol.

Regarding L52V, the “ddG of mutation (higher = less stable)” value was 0.5 kcal/mol; the midpoint of thermal melting (Tm) was found to be 46.1 °C; the “change of melting temperature, mutant” value was -0.5 °C; the “unfolding enthalpy (van 't Hoff)” value was 37.3 kcal/mol.

Regarding L52A, the “ddG of mutation (higher = less stable)” value came to 2.37 kcal/mol; the Tm stood at 37.5 °C; the “change of melting temperature, mutant” value was -9.1 °C; the “unfolding enthalpy (van 't Hoff)” value came out at 42.5 kcal/mol.

In the case of F70L, the “ddG of mutation (higher = less stable)” value worked out at 2.11 kcal/mol; the Tm came out at 32.5 °C; the “change of melting temperature, mutant” value was -14.1 °C; the “unfolding enthalpy (van 't Hoff)” value came out at 27.5 kcal/mol.

Turning to T23A, the “ddG of mutation (higher = less stable)” value came out at 0.85 kcal/mol; the midpoint of thermal melting (Tm) was 43.7 °C; the “change of melting temperature, mutant” value was -2.9 °C.

In the case of V39A, the “ddG of mutation (higher = less stable)” value is 0.48 kcal/mol; the midpoint of thermal melting (Tm) stood at 41.9 °C; the “change of melting temperature, mutant” value was -4.7 °C; the “unfolding enthalpy (van 't Hoff)” value stood at 30 kcal/mol.

Consider S32A E34A E35A, for which the “ddG of mutation (higher = less stable)” value was 1.67 kcal/mol.

Turning to S32A, the “ddG of mutation (higher = less stable)” value is 0.89 kcal/mol; the midpoint of thermal melting (Tm) was 38.2 °C; the “change of melting temperature, mutant” value is -8.4 °C; the “unfolding enthalpy (van 't Hoff)” value came out at 35.4 kcal/mol.

For the variant E34N, the “ddG of mutation (higher = less stable)” value came to 0.7 kcal/mol; the Tm was determined as 42.8 °C; the “change of melting temperature, mutant” value is -3.8 °C; the “unfolding enthalpy (van 't Hoff)” value is 36.1 kcal/mol.

As for L28A, the “ddG of mutation (higher = less stable)” value came to 2.68 kcal/mol; the midpoint of thermal melting (Tm) is 24.1 °C; the “change of melting temperature, mutant” value was -22.5 °C; the “unfolding enthalpy (van 't Hoff)” value was 34.6 kcal/mol.

Consider K38A, for which the “ddG of mutation (higher = less stable)” value was -0.23 kcal/mol; the Tm came to 41.4 °C; the “change of melting temperature, mutant” value is -5.2 °C; the “unfolding enthalpy (van 't Hoff)” value turned out to be 34.8 kcal/mol.

For K38G, the “ddG of mutation (higher = less stable)” value turned out to be 0.97 kcal/mol; the Tm stood at 35.8 °C; the “change of melting temperature, mutant” value is -10.8 °C; the “unfolding enthalpy (van 't Hoff)” value came out at 37.6 kcal/mol.

Take I50A: the “ddG of mutation (higher = less stable)” value is 2.12 kcal/mol.

Turning to I50V, the “ddG of mutation (higher = less stable)” value is -0.08 kcal/mol; the Tm is 48 °C; the “change of melting temperature, mutant” value came out at 1.4 °C; the “unfolding enthalpy (van 't Hoff)” value came out at 50.9 kcal/mol.

As for I49V, the “ddG of mutation (higher = less stable)” value was found to be 1.11 kcal/mol; the Tm is 39.4 °C; the “change of melting temperature, mutant” value is -7.2 °C; the “unfolding enthalpy (van 't Hoff)” value was found to be 27.8 kcal/mol.

Take I77V: the “ddG of mutation (higher = less stable)” value is -0.19 kcal/mol; the Tm was 47.7 °C; the “change of melting temperature, mutant” value was 1.1 °C; the “unfolding enthalpy (van 't Hoff)” value was found to be 34.6 kcal/mol.

For the variant K44A, the Tm was 40.8 °C; the “change of melting temperature, mutant” value is -5.8 °C; the “unfolding enthalpy (van 't Hoff)” value came to 24.6 kcal/mol.

On to E34A E35A, for which the “ddG of mutation (higher = less stable)” value came out at 0.76 kcal/mol.

With K37A, the “ddG of mutation (higher = less stable)” value worked out at 0.49 kcal/mol; the Tm came to 34 °C; the “change of melting temperature, mutant” value was -12.6 °C; the “unfolding enthalpy (van 't Hoff)” value was 27.2 kcal/mol.

On to I40V, for which the “ddG of mutation (higher = less stable)” value was 1.3 kcal/mol; the Tm is 31.8 °C; the “change of melting temperature, mutant” value is -14.8 °C; the “unfolding enthalpy (van 't Hoff)” value was determined as 26.3 kcal/mol.
